Test results published in patent publication US20040146873.
Changes are numbered by the printed parent chain.

Tests used:
[1] = test system: hPER2 peptides in the region of serine 662 with a negative charge at position 662 (covalently linked phosphate or aspartate)
[2] = test system: T1, hPER2 fragment, amino acids 474 to 815, wild-type (662S), 6-myc-tagged
T1 sequence: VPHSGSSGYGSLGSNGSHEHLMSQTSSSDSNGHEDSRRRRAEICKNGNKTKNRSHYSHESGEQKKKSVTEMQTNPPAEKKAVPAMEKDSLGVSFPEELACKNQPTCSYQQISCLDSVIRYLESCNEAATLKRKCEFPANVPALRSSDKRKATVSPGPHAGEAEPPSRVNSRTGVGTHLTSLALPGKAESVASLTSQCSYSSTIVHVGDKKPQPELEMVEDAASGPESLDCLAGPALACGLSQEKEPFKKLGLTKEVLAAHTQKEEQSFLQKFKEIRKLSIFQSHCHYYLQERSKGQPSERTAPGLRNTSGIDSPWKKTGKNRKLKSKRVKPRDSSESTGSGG

[3] = biological target: mPER2 fragment, amino acids 472 to 804, wild-type, 6-myc-tagged (UniProt O54943)
[4] = biological target: mPER2 fragment, amino acids 472 to 804, serine 659 substituted by glycine, 6-myc-tagged (UniProt O54943)
[5] = test system: T2, hPER2 fragment, amino acids 474 to 815, S662D, 6-myc-tagged
T2 sequence: T1 sequence with S189D

[6] = test system: T3, hPER2 fragment, amino acids 474 to 815, S662E, 6-myc-tagged
T3 sequence: T1 sequence with S189E

[7] = test system: T4, hPER2 fragment, amino acids 474 to 815, mutant S662G (662G), 6-myc-tagged
T4 sequence: T1 sequence with S189G

Chain of casein kinase Iε (CKIε) (P49674 whole entry, the tested form may be a part): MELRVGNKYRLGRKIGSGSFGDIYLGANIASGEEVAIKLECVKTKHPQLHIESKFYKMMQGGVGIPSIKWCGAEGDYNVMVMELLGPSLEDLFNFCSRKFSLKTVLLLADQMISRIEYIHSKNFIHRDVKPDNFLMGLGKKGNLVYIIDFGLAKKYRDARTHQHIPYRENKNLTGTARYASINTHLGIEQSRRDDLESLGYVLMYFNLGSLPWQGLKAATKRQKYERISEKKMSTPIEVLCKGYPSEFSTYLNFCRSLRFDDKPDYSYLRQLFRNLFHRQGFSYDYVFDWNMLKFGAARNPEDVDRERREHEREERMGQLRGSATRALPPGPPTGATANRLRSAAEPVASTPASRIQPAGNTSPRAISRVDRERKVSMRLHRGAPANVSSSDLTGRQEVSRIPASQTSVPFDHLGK

casein kinase Iε (CKIε)
phosphorylation stoichiometry (biochemical phosphorylation assay and mass spectrometry) [1]: phosphorylation of an additional four moles per mole of substrate when there is a negative charge at serine 662 | electrophoretic mobility shift (phosphorylation) at higher CKIε, 6.5 ng/µl [2]: mobility shifts were observed for both the wild type and mutant hPER2 fragments | electrophoretic mobility shift (phosphorylation) at low CKIε, 0.25 ng/µl [2]: an electrophoretic mobility shift was observed with the wild-type (662S) but not with the mutant (662G) fragment | electrophoretic mobility shift (phosphorylation) at low CKIε [3]: A similar result was obtained with wild-type and mutant mPER2 fragments (data not shown) | electrophoretic mobility shift (phosphorylation) at low CKIε [4]: A similar result was obtained with wild-type and mutant mPER2 fragments (data not shown) | phosphorylation (mobility shift) [5]: Phosphorylation was restored in both the S662D and S662E mutants, with a higher phosphorylation rate observed with the S662D mutant | phosphorylation (mobility shift) [6]: Phosphorylation was restored in both the S662D and S662E mutants, with a higher phosphorylation rate observed with the S662D mutant | electrophoretic mobility shift (phosphorylation) at higher CKIε, 6.5 ng/µl [7]: mobility shifts were observed for both the wild type and mutant hPER2 fragments | electrophoretic mobility shift (phosphorylation) at low CKIε, 0.25 ng/µl [7]: an electrophoretic mobility shift was observed with the wild-type (662S) but not with the mutant (662G) fragment
